According to paper doi:10.1101/2025.05.23.654710:

Experiments:
Experiment in all cases: EMSA
Msn2 IDR = biological target: T1, Msn2 IDR (Saccharomyces cerevisiae, UniProt P33748)
T1 sequence: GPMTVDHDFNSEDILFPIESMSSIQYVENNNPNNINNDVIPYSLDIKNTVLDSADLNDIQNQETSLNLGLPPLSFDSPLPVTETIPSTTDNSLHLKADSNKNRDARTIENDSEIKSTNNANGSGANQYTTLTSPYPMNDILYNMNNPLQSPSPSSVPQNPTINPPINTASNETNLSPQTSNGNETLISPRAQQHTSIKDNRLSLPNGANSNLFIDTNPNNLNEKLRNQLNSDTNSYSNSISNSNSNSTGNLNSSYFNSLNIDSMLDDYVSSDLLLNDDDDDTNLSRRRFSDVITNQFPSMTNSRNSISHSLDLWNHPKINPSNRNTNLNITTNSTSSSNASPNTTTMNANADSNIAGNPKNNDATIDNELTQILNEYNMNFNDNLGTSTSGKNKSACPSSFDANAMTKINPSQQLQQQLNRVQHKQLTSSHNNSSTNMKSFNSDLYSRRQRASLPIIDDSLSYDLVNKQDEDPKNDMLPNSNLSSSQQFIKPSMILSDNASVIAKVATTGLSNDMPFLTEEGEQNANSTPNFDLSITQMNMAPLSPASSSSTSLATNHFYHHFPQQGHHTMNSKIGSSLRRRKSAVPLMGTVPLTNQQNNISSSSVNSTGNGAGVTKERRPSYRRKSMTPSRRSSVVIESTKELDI

Msn2 DBD = biological target: T2, Msn2 DBD (Saccharomyces cerevisiae, UniProt P33748)
T2 sequence: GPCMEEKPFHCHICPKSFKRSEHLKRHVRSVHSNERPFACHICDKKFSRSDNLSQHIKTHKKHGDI

Msn2 WT = biological target: T3, Msn2 WT (Saccharomyces cerevisiae, UniProt P33748)
T3 sequence: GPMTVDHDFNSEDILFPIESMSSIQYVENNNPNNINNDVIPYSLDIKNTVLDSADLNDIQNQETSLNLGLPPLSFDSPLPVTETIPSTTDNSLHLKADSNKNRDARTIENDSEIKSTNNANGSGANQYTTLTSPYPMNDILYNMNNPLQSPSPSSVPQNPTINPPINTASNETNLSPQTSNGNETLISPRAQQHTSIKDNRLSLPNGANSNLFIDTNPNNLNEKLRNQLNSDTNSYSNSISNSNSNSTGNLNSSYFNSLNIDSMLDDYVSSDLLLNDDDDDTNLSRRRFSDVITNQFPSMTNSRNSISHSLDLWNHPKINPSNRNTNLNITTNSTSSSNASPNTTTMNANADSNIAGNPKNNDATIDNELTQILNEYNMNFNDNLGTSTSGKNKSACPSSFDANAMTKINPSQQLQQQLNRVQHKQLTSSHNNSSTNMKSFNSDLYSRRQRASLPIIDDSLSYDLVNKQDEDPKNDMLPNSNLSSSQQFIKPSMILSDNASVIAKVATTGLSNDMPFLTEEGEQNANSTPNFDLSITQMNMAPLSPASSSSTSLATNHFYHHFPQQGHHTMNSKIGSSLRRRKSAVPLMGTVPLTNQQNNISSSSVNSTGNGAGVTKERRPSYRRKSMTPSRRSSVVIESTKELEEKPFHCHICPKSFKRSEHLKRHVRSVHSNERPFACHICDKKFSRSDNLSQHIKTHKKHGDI

Measured: binding result

B1: 51 bp DNA with motif (dsDNA)
DNA 1: CGAAATTATATGGATGAGTAGGTGGGGAAGGAAGTATGTGTAGGTGGCAGG
DNA 2: CCTGCCACCTACACATACTTCCTTCCCCACCTACTCATCCATATAATTTCG
binds: all assays above
